Test results published in the Human Domainome abundance scans (Beltran et al. 2025).
± gives the uncertainty stated by the source.

B1: Zinc finger homeobox protein 4, residues 2183 to 2238; numbered along this chain, Q86UP3 (parent)
chain: SSRTRFTDYQLRVLQDFFDTNAYPKDDEIEQLSTVLNLPTRVIVVWFQNARQKARK

Variants of: B1
Assay: abundance fitness (aPCA) (normalised: wild type 0, dead -1); higher = more abundant; growth selection in yeast, the domain comes from the species named
Settings: Homo sapiens

SSRTRFTDYQLRVLQDFFDTNAYPKDDEIEQLSTVLNLPTRVIVVWFQNARMKARK [Q52M] and SSRTRFYDYQLRVLQDFFDTNAYPKDDEIEQLSTVLNLPTRVIVVWFQNARQKARK [T7Y] are within error of each other in abundance fitness: -0.308 ± 0.39 for the first, -0.574 ± 0.32 for the second.

SSRTRFTDYQLRVLQDFFDTNAYPKDDEIEQLSTVLNLPTRVIVVRFQNARQKARK [W46R] and SSRTRFTDYQLRVLQDFFDTNAYPKDDEIEQLSTVLNQPTRVIVVWFQNARQKARK [L38Q] are within error of each other in abundance fitness: -0.344 ± 0.11 for the first, -0.131 ± 0.11 for the second.

SSRTRFTDYQLRVLQDFFDTNAYPKDDEIEQLSTVLNHPTRVIVVWFQNARQKARK [L38H] and SSRTRFTDYQLRVLQDFFDTNAYPKDDEIEQLSTVLNLPTRVIVVWFQNAFQKARK [R51F] are within error of each other in abundance fitness: -0.305 ± 0.086 for the first, -0.221 ± 0.23 for the second.

SSRTRFTDYQLRVLQDFFDTNAYPKDDKIEQLSTVLNLPTRVIVVWFQNARQKARK [E28K] and SSRTRFTDYQLRVLQDFFDTNAYPKDDEIEQLSTVLNLPTRVIVVWFANARQKARK [Q48A] are within error of each other in abundance fitness: -0.011 ± 0.16 for the first, 0.017 ± 0.19 for the second.

Compared with SSRTRFTDYQLRVCQDFFDTNAYPKDDEIEQLSTVLNLPTRVIVVWFQNARQKARK [L14C], SSRTRFTDYQLMVLQDFFDTNAYPKDDEIEQLSTVLNLPTRVIVVWFQNARQKARK [R12M] is lower in abundance fitness: -0.181 ± 0.11 for the first, -0.631 ± 0.17 for the second.

Compared with SSRTRFTDYQLRVLQDFFDTNAYPKDDEIEQLSTVLNLATRVIVVWFQNARQKARK [P39A], SSRTRFTDYQLRVLQDFFDTNAYPKDDEIEQLSTVWNLPTRVIVVWFQNARQKARK [L36W] is lower in abundance fitness: -0.153 ± 0.09 for the first, -0.842 ± 0.13 for the second.

Compared with SSRWRFTDYQLRVLQDFFDTNAYPKDDEIEQLSTVLNLPTRVIVVWFQNARQKARK [T4W], SSRSRFTDYQLRVLQDFFDTNAYPKDDEIEQLSTVLNLPTRVIVVWFQNARQKARK [T4S] is higher in abundance fitness: -0.433 ± 0.12 for the first, 0.019 ± 0.087 for the second.

SSRTRFTSYQLRVLQDFFDTNAYPKDDEIEQLSTVLNLPTRVIVVWFQNARQKARK [D8S] and SSRTRFTDYQLRVLQDFFDTNAYPKDDEIEQLSTVLNLPTRVIVVWFQNARQKARC [K56C] are within error of each other in abundance fitness: -0.315 ± 0.1 for the first, -0.27 ± 0.27 for the second.

First: SSRTRFTDYQLRVLQDFFDTNAYPKDDEIEQLSTVLNLPTRVIVVWFQNARQKAAK [R55A]
Second: SSRTRFTDYQLRVLQDFFDTNAYPKDDEIEQLSTVLNLPTRVIVVWFQNARQKAIK [R55I]
The abundance fitness of the first is lower: -0.111 ± 0.13 for the first, 0.307 ± 0.23 for the second.

SSRTRFTDYQLRVLQDFFDTNAYPKDDEIEQLSTVLNLPTRVIVVWFQNARQKAVK [R55V] and SSRTRFTDYQLRVLQDFFDTNAYPKADEIEQLSTVLNLPTRVIVVWFQNARQKARK [D26A] are within error of each other in abundance fitness: -0.161 ± 0.12 for the first, 0.003 ± 0.1 for the second.

SSRTRFTDYQLRVLQDFFDTNAYPKLDEIEQLSTVLNLPTRVIVVWFQNARQKARK [D26L] and SSRTRFTDYQLRVLQDFFDTNAYPKFDEIEQLSTVLNLPTRVIVVWFQNARQKARK [D26F] are within error of each other in abundance fitness: -0.257 ± 0.11 for the first, -0.087 ± 0.17 for the second.

Compared with SSRTRFTDIQLRVLQDFFDTNAYPKDDEIEQLSTVLNLPTRVIVVWFQNARQKARK [Y9I], SSRTRFTDQQLRVLQDFFDTNAYPKDDEIEQLSTVLNLPTRVIVVWFQNARQKARK [Y9Q] is higher in abundance fitness: -0.351 ± 0.3 for the first, 0.283 ± 0.1 for the second.

SSRTRFTDYQLRALQDFFDTNAYPKDDEIEQLSTVLNLPTRVIVVWFQNARQKARK [V13A] and SSRTRFTDYQLRVLQDFFDTNAYPKDDEIEQLSCVLNLPTRVIVVWFQNARQKARK [T34C] are within error of each other in abundance fitness: -0.012 ± 0.2 for the first, -0.106 ± 0.11 for the second.

SSRTRFTDYQLRVLQDFFDTNAYPKDDEIEQLSKVLNLPTRVIVVWFQNARQKARK [T34K] and SSRTRFTDYQLRVLQDFFDTNAYPKDDEIEQLSFVLNLPTRVIVVWFQNARQKARK [T34F] are within error of each other in abundance fitness: 0.045 ± 0.12 for the first, 0.062 ± 0.14 for the second.

SSRTRFTDYQLRVLQDFFDTNAYPKDDEIEQLSWVLNLPTRVIVVWFQNARQKARK [T34W] and SSRTRFTDYQLRVLQDFFDTNAYPKDDEIEQLSTVLNLPTRVITVWFQNARQKARK [V44T] are within error of each other in abundance fitness: -0.244 ± 0.13 for the first, -0.094 ± 0.07 for the second.

SSRTRFTDYQLRVLQDFFDTNYYPKDDEIEQLSTVLNLPTRVIVVWFQNARQKARK [A22Y] and SSRTRFTDYQLRVLQDFFDTNAYPKDDEIEQLSTVLNLPTRKIVVWFQNARQKARK [V42K] are within error of each other in abundance fitness: -0.309 ± 0.17 for the first, -0.236 ± 0.17 for the second.

SSRTRFTDYQLRVLQDFRDTNAYPKDDEIEQLSTVLNLPTRVIVVWFQNARQKARK [F18R] and SSRTRFTDYQLRVLQDFADTNAYPKDDEIEQLSTVLNLPTRVIVVWFQNARQKARK [F18A] are within error of each other in abundance fitness: -0.222 ± 0.078 for the first, -0.117 ± 0.082 for the second.

SSRTRMTDYQLRVLQDFFDTNAYPKDDEIEQLSTVLNLPTRVIVVWFQNARQKARK [F6M] and SQRTRFTDYQLRVLQDFFDTNAYPKDDEIEQLSTVLNLPTRVIVVWFQNARQKARK [S2Q] are within error of each other in abundance fitness: 0.111 ± 0.1 for the first, 0.262 ± 0.16 for the second.

SSRTRFTDYQLRVLQDFFDTNAYPKDDEIEQLDTVLNLPTRVIVVWFQNARQKARK [S33D] and SSRTRFTDYQPRVLQDFFDTNAYPKDDEIEQLSTVLNLPTRVIVVWFQNARQKARK [L11P] are within error of each other in abundance fitness: -0.884 ± 0.36 for the first, -1.19 ± 0.34 for the second.

SSRTKFTDYQLRVLQDFFDTNAYPKDDEIEQLSTVLNLPTRVIVVWFQNARQKARK [R5K] and SSRTTFTDYQLRVLQDFFDTNAYPKDDEIEQLSTVLNLPTRVIVVWFQNARQKARK [R5T] are within error of each other in abundance fitness: 0.195 ± 0.2 for the first, 0.22 ± 0.13 for the second.

First: SSRTRFTDYQLRVLQDFFDTLAYPKDDEIEQLSTVLNLPTRVIVVWFQNARQKARK [N21L]
Second: SSRTRFTDYQLRVLQDFFDTNAYPKDYEIEQLSTVLNLPTRVIVVWFQNARQKARK [D27Y]
The abundance fitness of the first is lower: -0.488 ± 0.099 for the first, -0.171 ± 0.2 for the second.

SSRTRFTDYQLRVLQDFFDTNAYPKDFEIEQLSTVLNLPTRVIVVWFQNARQKARK [D27F] and SSRTRFTDYQLRVLQDFFDTNAYPKDDEIEQLSTVLNLPTYVIVVWFQNARQKARK [R41Y] are within error of each other in abundance fitness: 0.019 ± 0.26 for the first, 0.017 ± 0.17 for the second.

SSRTRFTDYQLRVLQDFFDTNAYPKDDEIEQLSTVLNLPTVVIVVWFQNARQKARK [R41V] and SSRTRFTDYQLRVLQDFFDTNAYPKDDEIEALSTVLNLPTRVIVVWFQNARQKARK [Q31A] are within error of each other in abundance fitness: -0.008 ± 0.09 for the first, -0.188 ± 0.094 for the second.

SSRTRFTDYQLRVLQDFFDTNAYPKDDEIEQLSTQLNLPTRVIVVWFQNARQKARK [V35Q] gave an abundance fitness of 0.004 ± 0.12.
